Experimental data reported in US20200095340A1.
Numbering of substitutions follows the chain as printed.

B1: anti-DLL3 trispecific protein 2H011 (protein, part only; not given: anti-CD3 fragment and anti-albumin domain, part only)
chain, part: EVQLVESGGGLVQPGGSLTLSCVASGSTSRINAMGWYRRAPGKQRELVAGISSDGSKVYADSVKGRFTISRDNAKNSVYLQMNSLRAEDTAVYYCYYFRRVSGSSMRYWGQGTLVTVSSGGGGSGGGSGGGGSGGGSHHHHHH
B2: anti-DLL3 trispecific protein 2H07 (protein, part only; not given: anti-CD3 fragment and anti-albumin sdAb, part only)
chain, part: B1 chain, part with R30S, M34V, K57T, R100T, S104H
B3: anti-DLL3 trispecific protein 1B01 (protein, part only; not given: anti-CD3 fragment and anti-albumin sdAb, part only)
chain, part: B1 chain, part with R30I, V48A, Y59I
B4: anti-DLL3 trispecific protein 1F012 (protein, part only; not given: anti-CD3 fragment and anti-albumin sdAb, part only)
chain, part: B1 chain, part with S27L, R30S, A60Q, R100T, V101N
B5: anti-DLL3 trispecific protein 1A06 (protein, part only; not given: anti-CD3 fragment and anti-albumin sdAb, part only)
chain, part: B1 chain, part with R30S, V48A, K57S, R100T, M106K
B6: anti-DLL3 trispecific protein 1C02 (protein, part only; not given: anti-CD3 fragment and anti-albumin sdAb, part only)
chain, part: B1 chain, part with R30S, G35A, A60S, R100T, Y108S
B7: anti-DLL3 trispecific protein 2F03 (protein, part only; not given: anti-CD3 fragment and anti-albumin sdAb, part only)
chain, part: B1 chain, part with R30S, G35A, V48A, G55N, R100T, S102G
B8: anti-DLL3 trispecific protein 1E010 (protein, part only; not given: anti-CD3 fragment and anti-albumin sdAb, part only)
chain, part: B1 chain, part with T28V, R30S, A60I, R100T, S104L
B9: anti-DLL3 trispecific protein 1D09 (protein, part only; not given: anti-CD3 and anti-albumin domains, part only)
chain, part: B1 chain, part with R30S, G35A, A60T, R100T, V101I
B10: anti-DLL3 trispecific protein 2G03 (protein, part only; not given: CD3 binder and albumin binder, part only)
chain, part: B1 chain, part with R30S, K57L, R100T, Y108A
B11: anti-DLL3 trispecific protein 1H01 (protein, part only; not given: CD3 binder and albumin binder, part only)
chain, part: B1 chain, part with R30S, G35A, V48A, G55N, R100T, V101R
B12: anti-DLL3 trispecific protein 1C03 (protein, part only; not given: anti-CD3 and anti-albumin domains, part only)
chain, part: B1 chain, part with R30S, G35A, G55N, R100T, S102G
B13: anti-DLL3 trispecific protein 1F05 (protein, part only; not given: CD3 fragment and albumin sdAb, part only)
chain, part: B1 chain, part with S29R, R30S, R99H, R100T
B14: anti-DLL3 trispecific protein 2C08 (protein, part only; not given: anti-CD3 and anti-albumin domains, part only)
chain, part: B1 chain, part with A60Q
B15: anti-DLL3 trispecific protein 1D010 (protein, part only; not given: anti-CD3 and anti-albumin domains, part only)
chain, part: B1 chain, part with R30S, I31N, G35A, A60T, R100T, V101R
B16: anti-DLL3 trispecific protein 2H03 (protein, part only; not given: CD3 binder and albumin binder, part only)
chain, part: B1 chain, part with R30S, G35A, R100Q
B17: anti-DLL3 trispecific protein 1D01 (protein, part only; not given: CD3 binder and albumin binder, part only)
chain, part: B1 chain, part with R30D, G55K, R100T, S102R
B18: anti-DLL3 trispecific protein 2A04 (protein, part only; not given: anti-CD3 fragment and anti-albumin domain, part only)
chain, part: B1 chain, part with R30S, G35A, A60T, R100T, V101T
B19: anti-DLL3 trispecific protein 1D03 (protein, part only; not given: CD3 binder and albumin binder, part only)
chain, part: B1 chain, part with R30S, M34I, Y59L, R100I, R107G
B20: anti-DLL3 trispecific protein 2E02 (protein, part only; not given: anti-CD3 fragment and anti-albumin sdAb, part only)
chain, part: B1 chain, part with R30A, A60V, R100T, M106Q
B21: anti-DLL3 trispecific protein 2D07 (protein, part only; not given: anti-CD3 fragment and anti-albumin sdAb, part only)
chain, part: B1 chain, part with R30S, M34V, S56T, A60R, R100T, S102Q
B22: anti-DLL3 trispecific protein 1E012 (protein, part only; not given: CD3 binder and albumin binder, part only)
chain, part: B1 chain, part with R30S, I31T, A60V, R100T, R107V
B23: anti-DLL3 trispecific protein 2D011 (protein, part only; not given: anti-CD3 fragment and anti-albumin sdAb, part only)
chain, part: B1 chain, part with S27T, R30S, R100T, S102W
B24: anti-DLL3 trispecific protein 2C07 (protein, part only; not given: anti-CD3 and anti-albumin domains, part only)
chain, part: B1 chain, part with R30S, G35A, R100S
B25: anti-DLL3 trispecific protein 2D04 (protein, part only; not given: CD3 binder and albumin binder, part only)
chain, part: B1 chain, part with R30S, M34V, A60R, R100T, S102Q
B26: anti-DLL3 trispecific protein 1H07 (protein, part only; not given: anti-CD3 fragment and anti-albumin sdAb, part only)
chain, part: B1 chain, part with R30S, M34F, A60S, R100T
B27: anti-DLL3 trispecific protein 1B09 (protein, part only; not given: anti-CD3 and anti-albumin domains, part only)
chain, part: B1 chain, part with R30S, G35A, A60V, R100T
B28: anti-DLL3 trispecific protein 1C05 (protein, part only; not given: CD3 binder and albumin binder, part only)
chain, part: B1 chain, part with R30S, G35A, R100T, S105H
B29: anti-DLL3 trispecific protein 1H011 (protein, part only; not given: anti-CD3 and anti-albumin domains, part only)
chain, part: B1 chain, part with R30S, M34I, A60N, R100T, V101Q
B30: anti-DLL3 trispecific protein 2B07 (protein, part only; not given: CD3 fragment and albumin sdAb, part only)
chain, part: B1 chain, part with R30S, M34F, R100T, S102R
B31: anti-DLL3 trispecific protein 1B011 (protein, part only; not given: CD3 binder and albumin binder, part only)
chain, part: B1 chain, part with R100T, S102Y
B32: anti-DLL3 trispecific protein 4C01 (protein, part only; not given: anti-CD3 fragment and anti-albumin sdAb, part only)
chain, part: EVQLVESGGGLVQPGGSLTLSCAASGSSVRFLSMAWYRQAPGKKRELVAGISADGSTVYIDSVKGRFTISRDNAKNSVYLQMNSLRAEDTAVYYCYAYRWKTRYTYWGQGTLVTVSSGGGGSGGGSGGGGSGGGSHHHHHH
B33: anti-DLL3 trispecific protein 4D011 (protein, part only; not given: anti-CD3 fragment and anti-albumin sdAb, part only)
chain, part: B32 chain, part with A53V, V58D, K101R
B34: anti-DLL3 trispecific protein 3C08 (protein, part only; not given: anti-CD3 fragment and anti-albumin sdAb, part only)
chain, part: B32 chain, part with R30K, A53L, V58D, K101T, T102G
B35: anti-DLL3 trispecific protein 4D08 (protein, part only; not given: anti-CD3 and anti-albumin domains, part only)
chain, part: B32 chain, part with R30N, V58H, K101L
B36: anti-DLL3 trispecific protein 4A011 (protein, part only; not given: CD3 binder and albumin binder, part only)
chain, part: B32 chain, part with S28K, R30S, V58T
B37: anti-DLL3 trispecific protein 4C011 (protein, part only; not given: anti-CD3 and anti-albumin domains, part only)
chain, part: B32 chain, part with S28R, R30S, K101T, T102R
B38: anti-DLL3 trispecific protein 4H04 (protein, part only; not given: anti-CD3 fragment and anti-albumin sdAb, part only)
chain, part: B32 chain, part with R30K, I51V, V58D, R99E, K101T
B39: anti-DLL3 trispecific protein 3D011 (protein, part only; not given: CD3 binder and albumin binder, part only)
chain, part: B32 chain, part with R30S, F31R, T57R, V58D, K101T, T105K
B40: anti-DLL3 trispecific protein 4F010 (protein, part only; not given: anti-CD3 and anti-albumin domains, part only)
chain, part: B32 chain, part with R30S, A53I, V58D, D61K, K101T, T105R
B41: anti-DLL3 trispecific protein 3D07 (protein, part only; not given: anti-CD3 and anti-albumin domains, part only)
chain, part: B32 chain, part with V58D, R99S, K101T
B42: anti-DLL3 trispecific protein 4B09 (protein, part only; not given: anti-CD3 fragment and anti-albumin sdAb, part only)
chain, part: B32 chain, part with R30S, V58D, D61S, R99S, K101T

target: biotinylated human DLL3 protein expressed as a human IgG1 fusion protein (human) (UniProt Q9NYJ7); test: Octet BLI; biotinylated huDLL3-IgG1 fusion on streptavidin tips; single 50 nM; conditioned medium
Sequence (Q9NYJ7 other isoform, or with tags, fused parts or gaps): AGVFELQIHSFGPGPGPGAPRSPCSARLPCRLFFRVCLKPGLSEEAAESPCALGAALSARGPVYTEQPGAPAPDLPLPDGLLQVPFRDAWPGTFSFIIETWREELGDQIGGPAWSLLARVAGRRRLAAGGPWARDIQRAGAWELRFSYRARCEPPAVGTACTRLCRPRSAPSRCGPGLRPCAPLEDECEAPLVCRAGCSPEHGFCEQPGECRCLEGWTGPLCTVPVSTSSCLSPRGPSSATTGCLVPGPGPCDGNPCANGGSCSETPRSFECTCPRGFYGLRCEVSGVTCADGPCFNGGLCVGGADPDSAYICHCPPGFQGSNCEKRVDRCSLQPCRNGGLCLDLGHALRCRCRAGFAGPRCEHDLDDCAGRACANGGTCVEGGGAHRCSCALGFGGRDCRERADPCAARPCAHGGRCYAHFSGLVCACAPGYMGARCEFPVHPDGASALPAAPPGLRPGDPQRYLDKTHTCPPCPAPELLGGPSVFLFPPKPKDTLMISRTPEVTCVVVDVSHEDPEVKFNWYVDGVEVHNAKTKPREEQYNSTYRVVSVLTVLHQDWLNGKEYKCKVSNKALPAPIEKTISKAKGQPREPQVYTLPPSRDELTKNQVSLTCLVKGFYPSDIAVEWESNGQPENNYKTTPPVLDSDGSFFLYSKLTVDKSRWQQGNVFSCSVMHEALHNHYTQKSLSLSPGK

Row | Binder | Kd [nM]
1 | B1 | 5
2 | B2 | 6.1
3 | B3 | 5.2
4 | B4 | 5.8
5 | B5 | 5.6
6 | B6 | 6.2
7 | B7 | 5.9
8 | B8 | 5.7
9 | B9 | 5.2
10 | B10 | 5.6
11 | B11 | 5.7
12 | B12 | 6.1
13 | B13 | 5.8
14 | B14 | 6.1
15 | B15 | 5
16 | B16 | 5.3
17 | B17 | 5.8
18 | B18 | 5.6
19 | B19 | 5.8
20 | B20 | 6
21 | B21 | 6

Row | Binder | Kd [nM]
22 | B22 | 5.3
23 | B23 | 5.4
24 | B24 | 6.2
25 | B25 | 6.2
26 | B26 | 6.2
27 | B27 | 5.4
28 | B28 | 5.3
29 | B29 | 6.2
30 | B30 | 5.7
31 | B31 | 5.7
32 | B32 | 5.1
33 | B33 | 5.8
34 | B34 | 5.9
35 | B35 | 5.9
36 | B36 | 5.6
37 | B37 | 6
38 | B38 | 6.1
39 | B39 | 5.3
40 | B40 | 5.8
41 | B41 | 5.9
42 | B42 | 5.4
